Assay [1] has as its target T1, human LRP6 construct E1 (amino acids A20-D325) (human, UniProt O75581 20-325).
T1 construct: range 20-325; In the Fab crystal E1 arose from E1E2 degraded beyond Arg 335; residues Ala20 to Lys324 were traced; also called LRP6 E1; E1 domain
T1 sequence (looked up): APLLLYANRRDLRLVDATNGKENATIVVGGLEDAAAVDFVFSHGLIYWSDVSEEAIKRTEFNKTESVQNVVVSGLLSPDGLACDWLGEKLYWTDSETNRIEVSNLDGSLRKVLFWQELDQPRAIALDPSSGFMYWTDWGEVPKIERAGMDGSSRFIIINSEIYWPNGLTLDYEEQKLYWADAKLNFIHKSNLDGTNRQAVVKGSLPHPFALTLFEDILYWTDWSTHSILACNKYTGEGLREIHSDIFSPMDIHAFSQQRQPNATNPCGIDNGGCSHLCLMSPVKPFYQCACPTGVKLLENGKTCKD
The assay can be described thus: synthetic peptides, competition IC50 (FIG. 18).

The next assay addresses T2, LRP6 E1E4 (Homo sapiens, UniProt O75581).
T2 construct: construct E1E4-amino acids A20-Q1253 of LPR6; made in house; host or cells: Tni insect cells (baculovirus, secreted)
T2 sequence (O75581 20-1253): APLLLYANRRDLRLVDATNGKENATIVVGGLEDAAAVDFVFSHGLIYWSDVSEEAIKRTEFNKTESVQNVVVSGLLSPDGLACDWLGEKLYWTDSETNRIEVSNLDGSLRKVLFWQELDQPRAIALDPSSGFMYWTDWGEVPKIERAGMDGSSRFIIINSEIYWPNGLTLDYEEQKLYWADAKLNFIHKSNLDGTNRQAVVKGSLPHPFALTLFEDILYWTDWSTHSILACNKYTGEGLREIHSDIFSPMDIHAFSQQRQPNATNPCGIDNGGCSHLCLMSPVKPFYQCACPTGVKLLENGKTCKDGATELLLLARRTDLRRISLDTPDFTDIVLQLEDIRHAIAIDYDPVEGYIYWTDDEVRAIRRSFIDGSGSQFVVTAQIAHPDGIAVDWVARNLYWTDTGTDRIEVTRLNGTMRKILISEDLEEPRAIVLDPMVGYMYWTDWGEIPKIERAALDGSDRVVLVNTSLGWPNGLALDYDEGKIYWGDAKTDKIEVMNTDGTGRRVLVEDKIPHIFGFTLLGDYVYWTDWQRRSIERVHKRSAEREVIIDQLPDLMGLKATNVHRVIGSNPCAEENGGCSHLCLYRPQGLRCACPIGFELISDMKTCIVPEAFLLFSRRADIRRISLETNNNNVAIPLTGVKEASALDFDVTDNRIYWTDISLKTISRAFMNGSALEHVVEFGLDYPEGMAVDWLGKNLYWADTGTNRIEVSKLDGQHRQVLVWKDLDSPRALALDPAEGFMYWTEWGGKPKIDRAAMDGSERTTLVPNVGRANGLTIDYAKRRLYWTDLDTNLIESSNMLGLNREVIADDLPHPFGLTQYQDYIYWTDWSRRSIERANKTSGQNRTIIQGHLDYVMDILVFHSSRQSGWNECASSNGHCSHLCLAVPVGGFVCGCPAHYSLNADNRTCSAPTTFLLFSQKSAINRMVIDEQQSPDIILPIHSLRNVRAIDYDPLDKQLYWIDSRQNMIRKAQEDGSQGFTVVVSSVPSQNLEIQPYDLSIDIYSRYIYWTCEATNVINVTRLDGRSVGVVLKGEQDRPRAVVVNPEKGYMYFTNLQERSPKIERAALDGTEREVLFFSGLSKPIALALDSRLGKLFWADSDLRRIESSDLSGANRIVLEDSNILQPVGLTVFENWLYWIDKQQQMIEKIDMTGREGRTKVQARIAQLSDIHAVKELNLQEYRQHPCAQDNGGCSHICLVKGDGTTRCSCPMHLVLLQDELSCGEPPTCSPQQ
The assay can be described thus: Biolayer interferometry binding to LRP6 E1E4. Here is the method:
(§1) Binding kinetics were measured by biolayer interferometry using an Octet Red instrument (ForteBio) as previously described (11). Streptavidin (SA) biosensors were loaded with biotinylated hLRP6 in 50 mMTris, pH 8, 300 mM NaCl, 5% (v/v) glycerol, and 0.05% (w/v) Triton X-100. The loaded biosensors were washed in the same buffer before carrying out association and dissociation measurements for the indicated times. The Kd of each interaction was determined using steady state-analysis through the Octet Red software v6.3. Each reported value represents an average of three or more experiments at different concentrations, with a fitted experimental curve for which the square of the correlation coefficient (R^2) is above 0.96.
(§2) The interaction of the different Dkks and sclerostin with various domains of LRP6 was measured using a biolayer interferometry assay (11). Purified receptors contained individual β-propeller-EGF-like units (E1, E2, or E4), two β-propellers (E1E2 or E3E4), or four β-propellers (E1E4))—as follows:
(§3) Human LRP6: construct E1E4-amino acids A20-Q1253 of LPR6; construct E1E2-amino acids A20-E631 of LPR6; construct E3E4 amino acids E631-Q1253 of LPR6; construct E1-amino acids A20-D325 of LPR6; construct E2-amino acids […]-E631 of LPR6; construct E4-T933-Q1253. The individual LRP6 β-propeller E3 could not be expressed.

A further assay concerns the target T3, LRP6 E1E2 (Homo sapiens, UniProt O75581).
T3 construct: construct E1E2-amino acids A20-E631 of LPR6; made in house; host or cells: Tni insect cells (baculovirus, secreted)
T3 sequence (O75581 20-631): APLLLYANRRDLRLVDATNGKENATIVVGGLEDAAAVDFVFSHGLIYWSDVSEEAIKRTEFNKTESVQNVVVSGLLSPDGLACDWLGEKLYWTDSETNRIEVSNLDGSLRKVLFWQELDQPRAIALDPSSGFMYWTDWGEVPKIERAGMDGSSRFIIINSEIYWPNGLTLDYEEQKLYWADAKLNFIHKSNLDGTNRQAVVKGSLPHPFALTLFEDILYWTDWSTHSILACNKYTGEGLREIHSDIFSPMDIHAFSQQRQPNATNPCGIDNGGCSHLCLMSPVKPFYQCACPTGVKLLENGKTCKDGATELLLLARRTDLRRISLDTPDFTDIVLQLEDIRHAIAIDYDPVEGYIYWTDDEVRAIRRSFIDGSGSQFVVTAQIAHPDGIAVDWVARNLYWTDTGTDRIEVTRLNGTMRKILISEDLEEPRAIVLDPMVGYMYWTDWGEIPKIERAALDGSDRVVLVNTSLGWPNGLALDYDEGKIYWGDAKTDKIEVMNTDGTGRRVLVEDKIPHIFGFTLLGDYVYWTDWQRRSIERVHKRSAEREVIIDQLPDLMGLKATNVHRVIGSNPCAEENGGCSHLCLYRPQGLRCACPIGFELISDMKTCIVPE
Description: Biolayer interferometry binding to LRP6 E1E2. The procedure:
as §1, §2, §3
Background: BLI is a label-free optical method that tracks binding on a fibre tip over time.

The target in another assay is T4, LRP6 E3E4 (Homo sapiens, UniProt O75581).
T4 construct: construct E3E4 amino acids E631-Q1253 of LPR6; made in house; host or cells: Tni insect cells (baculovirus, secreted)
T4 sequence (O75581 631-1253): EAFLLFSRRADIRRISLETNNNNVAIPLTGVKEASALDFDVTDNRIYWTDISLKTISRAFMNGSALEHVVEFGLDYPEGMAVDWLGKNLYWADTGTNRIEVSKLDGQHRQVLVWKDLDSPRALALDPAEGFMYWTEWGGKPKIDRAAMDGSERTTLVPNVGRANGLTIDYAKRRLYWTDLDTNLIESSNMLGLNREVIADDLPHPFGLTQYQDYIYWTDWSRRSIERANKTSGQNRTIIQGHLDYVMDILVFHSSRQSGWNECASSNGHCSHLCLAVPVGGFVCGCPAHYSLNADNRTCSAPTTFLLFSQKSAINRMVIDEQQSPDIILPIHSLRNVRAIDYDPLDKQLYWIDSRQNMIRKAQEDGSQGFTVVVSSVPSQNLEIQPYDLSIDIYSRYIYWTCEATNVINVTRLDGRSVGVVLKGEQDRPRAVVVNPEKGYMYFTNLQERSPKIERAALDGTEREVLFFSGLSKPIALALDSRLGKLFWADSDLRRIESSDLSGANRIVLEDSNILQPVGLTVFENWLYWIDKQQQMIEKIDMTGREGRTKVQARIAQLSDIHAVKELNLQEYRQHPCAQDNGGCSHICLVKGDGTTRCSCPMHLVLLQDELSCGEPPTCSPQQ
Description: Biolayer interferometry binding to LRP6 E3E4. The procedure: as §1, §2, §3

The target of assay [2] is T5, human LRP6 construct E1E2 (amino acids A20-E631) (human, UniProt O75581 20-631, biotinylated for biolayer interferometry).
T5 construct: range 20-631; also called LRP6 E1E2
T5 sequence (looked up): T3 sequence (O75581 20-631)
The assay can be described thus: BLI affinity. The procedure:
as §1, with “(R²)” for “(R^2)”

Non-standard residues stand in square brackets, D forms with d. NMeI = CC[C@H](C)[C@H](NC)C(=O)O; NMeK = CN[C@@H](CCCCN)C(=O)O; NMeS = CN[C@@H](CO)C(=O)O

B1: Ac-NSIKGY-am (peptide)
peptide: Ac-NSIKGY-NH2
notes: also called minimized analogue of the Dkk1 peptide; Lys parent
Regarding B1, the binding result in assay [1] was “binds”.
The same measure, in the same setting: as for Ac-QSIKGY-NH2 [Ac-NSIKGY-am with Gln in place of Asn], the entry is “no binding”; as for Ac-NSEKGY-NH2 [Ac-NSIKGY-am with Glu in place of Ile], “no binding”.

B2: Dkk4: Dickkopf 4, carrier-free protein from R&D Systems (protein, UniProt Q9UBT3 19-224, looked up)
Dickkopf-related protein 4: LVLDFNNIRSSADLHGARKGSQCLSDTDCNTRKFCLQPRDEKPFCATCRGLRRRCQRDAMCCPGTLCVNDVCTTMEDATPILERQLDEQDGTHAEGTTGHPVQENQPKRKPSIKKSQGRKGQEGESCLRTFDCGPGLCCARHFWTKICKPVLLEGQVCSRRGHKDTAQAPEIFQRCDCGPGLLCRSQLTSNRQHARLRVCQKIEKL
For the molecule B2, the “binding to LRP6 E1E4 (in words)” value with LRP6 E1E4 is on record as “very weak binding”. Besides, the “binding to LRP6 E1E2 (in words)” value in the assay with LRP6 E1E2 is given as “did not bind”. Moreover, in the assay with LRP6 E3E4, the “binding to LRP6 E3E4 (in words)” value is recorded as “very weak binding”.

B3: Ac-NSIKGY-am with an Nα-methyl amino acid at the K position (peptide)
peptide: Ac-NSI[NMeK]GY-NH2
SMILES: CC[C@H](C)[C@H](NC(=O)[C@H](CO)NC(=O)[C@H](CC(N)=O)NC(C)=O)C(=O)N(C)[C@@H](CCCCN)C(=O)NCC(=O)N[C@@H](Cc1ccc(O)cc1)C(N)=O
With B3, in assay [1], the binding result is recorded as “no binding”.

B4: Sclerostin Asn117Ala (ligand, UniProt Q9BQB4 24-213, looked up)
chain: QGWQAFKNDATEIIPELGEYPEPPPELENNKTMNRAENGGRPPHHPFETKDVSEYSCRELHFTRYVTDGPCRSAKPVTELVCSGQCGPARLLPAAIGRGKWWRPSGPDFRCIPDRYRAQRVQLLCPGGEAPRARKVRLVASCKCKRLTRFHNQSELKDFGTEAARPQKGRKPRPRARSAKANQAELENAY
notes: also called sclerostin N117A
Take B4: the “fold loss in affinity against wild-type sclerostin” value in assay [2] worked out at 14 fold.

B5: Dkk1 Asn40Ala (ligand, human, UniProt O94907 32-266, looked up)
chain: TLNSVLNSAAIKNLPPPLGGAAGHPGSAVSAAPGILYPGGNKYQTIDNYQPYPCAEDEECGTDEYCASPTRGGDAGVQICLACRKRRKRCMRHAMCCPGNYCKNGICVSSDQNHFRGEIEETITESFGNDHSTLDGYSRRTTLSSKMYHTKGQEGSVCLRSSDCASGLCCARHFWSKICKPVLKEGQVCTKHRRKGSHGLEIFQRCYCGEGLSCRIQKDHHQASNSSRLHTCQRH
notes: also called Dkk1 N40A
As for B5, the “fold loss in affinity against wild-type Dkk1” value in assay [2] was determined as 75 fold. For the same molecule, the “binding to LRP6 E1E4 (in words)” value with LRP6 E1E4 is reported as “retain binding”. The “binding to LRP6 E1E2 (in words)” value with LRP6 E1E2 is “affect binding”. Moreover, the “binding to LRP6 E3E4 (in words)” value in the assay with LRP6 E3E4 is “not to E3E4”.

B6: Ac-NSIKGY-am with an Nα-methyl amino acid at the S position (peptide)
peptide: Ac-N[NMeS]IKGY-NH2
SMILES: CC[C@H](C)[C@H](NC(=O)[C@H](CO)N(C)C(=O)[C@H](CC(N)=O)NC(C)=O)C(=O)N[C@@H](CCCCN)C(=O)NCC(=O)N[C@@H](Cc1ccc(O)cc1)C(N)=O
B6: in assay [1], the binding result is “no binding”.

B7: Ac-NSIKGY-am with an Nα-methyl amino acid at the I position (peptide)
peptide: Ac-NS[NMeI]KGY-NH2
SMILES: CC[C@H](C)[C@@H](C(=O)N[C@@H](CCCCN)C(=O)NCC(=O)N[C@@H](Cc1ccc(O)cc1)C(N)=O)N(C)C(=O)[C@H](CO)NC(=O)[C@H](CC(N)=O)NC(C)=O
With B7, the binding result in assay [1] is “no binding”.

The values above are taken from patent US20140235820A1, “METHODS AND COMPOSITIONS FOR MODULATING THE Wnt PATHWAY” (Genentech, Inc., priority 2010, published 2014).
